This data set can be described thus: yeast display, Sf9 membrane polyspecificity reagent, FACS + sequencing; frameworks hold sequencing errors. Put shortly:
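Sorting gates, low and high (top ~1%), were placed on anti-HA fluorescence to track expression and on streptavidin fluorescence to track reagent binding. A clone's polyreactivity label is taken from the gate it came out of. The reagent was 10% biotinylated, detergent-solubilized Sf9 membrane, applied for 1 hour at 4 °C to galactose-induced yeast display cells.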
For the sequence “QVQLVESGGGLVQAGGSLRLSCAASGFIFGDYAMGWYRQAPGKERELVADINWTGGSTYYADSVKGRFTISRDNAKNTVYLQMNSLKPEDTAVYYCAKDDYAFLITWVDYWGQGTQVTVSS”, the “polyreactivity (PSR sort gate)” value was “low polyreactivity”.

As to “QVQLVESGGGLVQAGGSLRLSCAPSGLTIGHYAMGWYRQAPGKERELVAAISSGGSTYYADSVKGRFTISRDNAKNTVYLQMNSLKPEDTAVYYCAAVTVGTAYYARTFYYWGQGTQVTVSS”, the “polyreactivity (PSR sort gate)” value was “high polyreactivity”.

As for “QVQLEESGGGLVQAGVSLRLSCAASGRIFGVYTMGWYRQAPGKERELVAAISRTGGRTYYADSVKGRFTISRDNAKNTVYLQMNSLKPEDTAVYYCAADSRGEDYYYWGQGTQVTVSS”, the “polyreactivity (PSR sort gate)” value was “high polyreactivity”.

For the sequence “QVQLVESGGGLVQAGGSLRLSCAASGFTFSPYTMGWYRQAPGKERELVATIRYDGTSTYYADSVKGRFTISRDYAKNTVYLQMNSLKPEDTAVYFCAADIWRVYSTFYYWGQGTQVTVSS”, the “polyreactivity (PSR sort gate)” value is listed as “low polyreactivity”.

“QVQLVESGGGLVQAGGSLRLSCAASGSTFYLNVMGWYRQAPGKERELVAAISSSGGSTYYADSVKGRFTISRDNAKNTVYLQMNSLKPEDTAVYYCNKVSAFPHYSGYDYWGQGTQVTVSS”: the “polyreactivity (PSR sort gate)” value is reported as “low polyreactivity”.

On to “QVQLVESGGGLVQAGGSLRLSCAASGSTFYPYAMGWYRQAPGKEREFVAAIRSSGTSTYYADSVKGRFTISRDNAKNTVYLQMNSLKPEDTEVYYGAARVRGDSVSRTKPASIGGGSWGQGTQVTVSS”, for which the “polyreactivity (PSR sort gate)” value is given as “high polyreactivity”.

As for “QVQLVESGGGLVQAGGSLRLSCAASGRTFGRNAMGWYRQAPGKERELVAAITWSGGRTYYADSVKGRFSISRDNAKNTVYLQMNSLKPEDTAVYYCARGSSSISIFYRYDYWGQGTQVTVSS”, the “polyreactivity (PSR sort gate)” value is “high polyreactivity”.

For “QVQLVESGGGLVQAGGSLRLSCAASGRIFTYYTMAWYRQAPGKERELVAAISWSGGRTYYADSVKGRFTISRDNAKNTVYLQMNSLKPEDTAVYYCARRRAVRFYYWGQGTQVTVSS”, the “polyreactivity (PSR sort gate)” value is given as “high polyreactivity”.

Turning to “QVQLVESGGGLVQAGGSLRLSCAASGFTFPSYAMGWYRQAPGKERELVAVISRRGGSTYYADSVKGRFTISRDNAKNTVYLQMNSLKPEDTAVYYCNAPYYVFITFDYWGQGTQVTVSS”, the “polyreactivity (PSR sort gate)” value is “high polyreactivity”.

As for “QVQLVESGGGLVQAGGSLRLSCAASGITFWNAMGWYRQAPGKERELVAAITSSGGSTYYADSVKGRFTISRDNAKNTVYLQMNSLKPEDTAVYYCAADYGRTRYDMDYWGQGTQVTVSS”, the “polyreactivity (PSR sort gate)” value was “low polyreactivity”.

“QVQLVESGGGLVQAGGRLRFSCAASGSTIRRKAMGWSRQAPGKERELVARISYRGGSTYYADSVKGRFTSSRDNAKNTVYLQMNSLKPEATAVYYCAAPVYGVPEYDYWGQGPQVTVSS”: the “polyreactivity (PSR sort gate)” value is “low polyreactivity”.

As to “QVQLVESGGGLVQAGGSLRLSCAASGRILAGYAMGWYRQAPGKERELVAAITRGGTTYYADSVKGRFTISRDNAKYTVYLQMNSLKPEDTAVVYTVSSAQYDYWGQGTQVTVSS”, the “polyreactivity (PSR sort gate)” value is on record as “low polyreactivity”.

For “QVQLVESGGGLVQAGGSLRLSCAASGIIFRWYGMGWYRQAPGKERELVATITSGGRTNYADSVKGRFTISRDNAKNTVYLQMNSLKPEDTAVYYCAAEKWTVRRFNPYTYYRYDYWGQGTQVTVSS”, the “polyreactivity (PSR sort gate)” value is given as “low polyreactivity”.

Consider “QVQLVESGGGLVQAGGSLRLSCAASGSTFLLNTMGWYRQAPGKERELVAVINSDDSTYYADSVKGRFTISRDNAKNTVYLQMNSLKPEDTAVYYCAAEPQYTRHMDSWGQGTQVTVSS”, for which the “polyreactivity (PSR sort gate)” value was “low polyreactivity”.

On to “QVQLVESGGGLVQAGGSLRLSCAASGSIFNLYAMGWYRQAPGKERELVAAISRSGGSTYYADSVKGRFTISRDNAKNTVYLQMNSLKPEDTAVYYCAARYNWRYDIFDYWGQGTQVTVSS”, for which the “polyreactivity (PSR sort gate)” value was “high polyreactivity”.

Regarding “QVQLVESGGGLVQAGGSLRLSCAASGLIFRTYTMGWYRQAPGKERELVATITRRCGTTYYADSVKGRFTISRDNAKNTVYLQMNSLKPEDTAVYYFAKSPYYTWKYDYWGQGTQVTVSS”, the “polyreactivity (PSR sort gate)” value is on record as “high polyreactivity”.
